Assay results taken from the Human Domainome abundance scans (Beltran et al. 2025).
± gives the uncertainty stated by the source.

B1: Zinc finger homeobox protein 3, residues 2643 to 2698; numbered along this chain, Q15911 (parent)
chain: RLRTTITPEQLEILYQKYLLDSNPTRKMLDHIAHEVGLKKRVVQVWFQNTRARERK

Variants of: B1
Experiment: abundance fitness (aPCA) (normalised: wild type 0, dead -1); higher = more abundant; growth selection in yeast, the domain comes from the species named
Settings: Homo sapiens

Variant | abundance fitness
RLRTTITPEQLEILYQKYVLDSNPTRKMLDHIAHEVGLKKRVVQVWFQNTRARERK | -0.12 ± 0.11
RLRTTITPEQLEILYQKYCLDSNPTRKMLDHIAHEVGLKKRVVQVWFQNTRARERK | -0.032 ± 0.12
RLRTTVTPEQLEILYQKYLLDSNPTRKMLDHIAHEVGLKKRVVQVWFQNTRARERK | -0.022 ± 0.08
RLRTTITPEQLEILYQKYLLDSNPTRKMLDHIAHEVQLKKRVVQVWFQNTRARERK | -0.147 ± 0.1
RLRTTITPEQLEILYQKYLLDSNPTRKMLDHIAHEVCLKKRVVQVWFQNTRARERK | -0.297 ± 0.087
RLRTTITPEQLEILYQKYLLDSNPTRKMLDHIAHEVGLKKRVVQVWFQNTRNRERK | 0.062 ± 0.14
RLRTTITPEQLEILYQKYLLDSNPTRKMLDHIAHEVGLKKRVVQVWFQNTRSRERK | -0.021 ± 0.083
RLRTTITPEQLEILYQKYLLDCNPTRKMLDHIAHEVGLKKRVVQVWFQNTRARERK | -0.136 ± 0.11
RLRTTITPEQLEILYQKYLLDQNPTRKMLDHIAHEVGLKKRVVQVWFQNTRARERK | 0.037 ± 0.14
RLRTTITPEQLEILYQKYLLDSNPTRKMLDHIAHEVGLKKNVVQVWFQNTRARERK | 0.2 ± 0.36
RLRTTITPEQLEILYQKYLLDSNPTRKMLDHIAHEVGLKKIVVQVWFQNTRARERK | 0.544 ± 0.18
RLRTTITPEQLEILYQKYLLDSNPTRKMLDHIAHEVGLKKRRVQVWFQNTRARERK | -0.44 ± 0.091
RLRTTITPEQLEILYQKYLLDSNPTRKMLDHIAHEVGLKKRDVQVWFQNTRARERK | 0.226 ± 0.13
RLRTTITPEQLEILYQKYLLDSNPTRKMLDHIAHEVGLKKRVVQVWFQNTRAPERK | -0.266 ± 0.14
RLTTTITPEQLEILYQKYLLDSNPTRKMLDHIAHEVGLKKRVVQVWFQNTRARERK | 0.435 ± 0.12
RLFTTITPEQLEILYQKYLLDSNPTRKMLDHIAHEVGLKKRVVQVWFQNTRARERK | 0.037 ± 0.15
RLCTTITPEQLEILYQKYLLDSNPTRKMLDHIAHEVGLKKRVVQVWFQNTRARERK | 0.216 ± 0.11
TLRTTITPEQLEILYQKYLLDSNPTRKMLDHIAHEVGLKKRVVQVWFQNTRARERK | 0.504 ± 0.29
RLRTTITPEQLEILYQKYLLDSNPTRKMLDHIAHEVGLKKRVVQVEFQNTRARERK | -1.08 ± 0.18
RLRTTITPEQYEILYQKYLLDSNPTRKMLDHIAHEVGLKKRVVQVWFQNTRARERK | -0.024 ± 0.15
RLRTTITPEQREILYQKYLLDSNPTRKMLDHIAHEVGLKKRVVQVWFQNTRARERK | 0.049 ± 0.074
RLRTTITPEQEEILYQKYLLDSNPTRKMLDHIAHEVGLKKRVVQVWFQNTRARERK | 0.026 ± 0.11
RLRTTITPEDLEILYQKYLLDSNPTRKMLDHIAHEVGLKKRVVQVWFQNTRARERK | 0.224 ± 0.086
RLRTTITPEVLEILYQKYLLDSNPTRKMLDHIAHEVGLKKRVVQVWFQNTRARERK | -0.321 ± 0.078

Variant | abundance fitness
RLRTTITPEKLEILYQKYLLDSNPTRKMLDHIAHEVGLKKRVVQVWFQNTRARERK | -0.432 ± 0.1
RLRTTITPELLEILYQKYLLDSNPTRKMLDHIAHEVGLKKRVVQVWFQNTRARERK | -0.646 ± 0.072
RLRTTITPEQLEILYQKYLLDSNPTRKMLDHRAHEVGLKKRVVQVWFQNTRARERK | -1.01 ± 0.11
RLRTTITPEQLEILYQKYLLDSNPTRKMLDHLAHEVGLKKRVVQVWFQNTRARERK | -0.123 ± 0.08
RLRTTITPEQLEILYQKYLLDSNPTRKMLDHYAHEVGLKKRVVQVWFQNTRARERK | -0.378 ± 0.2
RLRTTITPEQLTILYQKYLLDSNPTRKMLDHIAHEVGLKKRVVQVWFQNTRARERK | 0.041 ± 0.1
RLRTTITPEQLGILYQKYLLDSNPTRKMLDHIAHEVGLKKRVVQVWFQNTRARERK | -0.228 ± 0.077
RLRTTITPEQLEILYQKYLLDSNPTRKMLDHIACEVGLKKRVVQVWFQNTRARERK | -0.075 ± 0.099
RLRTTITPEQLEILYQKYLLDSNPTRKMLDHIGHEVGLKKRVVQVWFQNTRARERK | -0.398 ± 0.086
RLRTTITPEQLEILYQKYLLDSNPTRKMLDHICHEVGLKKRVVQVWFQNTRARERK | -0.127 ± 0.1
RLRTTITPEQLEILYQKYLLDSNPTRKMLDHIDHEVGLKKRVVQVWFQNTRARERK | -0.866 ± 0.11
RLRTTITPEQLEILYQKYLLCSNPTRKMLDHIAHEVGLKKRVVQVWFQNTRARERK | -0.426 ± 0.15
RLRTTITPEQLEILYQKYLLDSNPFRKMLDHIAHEVGLKKRVVQVWFQNTRARERK | -0.605 ± 0.23
RLRTTITPEQLEILYQKYLLDSNPPRKMLDHIAHEVGLKKRVVQVWFQNTRARERK | -0.145 ± 0.12
RLRTTITPEQLEILYQKYLLDSNPRRKMLDHIAHEVGLKKRVVQVWFQNTRARERK | -0.753 ± 0.093
RLRTTITPEQLEILYQKYLLDSTPTRKMLDHIAHEVGLKKRVVQVWFQNTRARERK | -0.379 ± 0.16
RLRTTITPEQLEILYQKYLLDSNPTRKMLDHIAHEVGLKGRVVQVWFQNTRARERK | 0.04 ± 0.079
RLRTTITPEQLEPLYQKYLLDSNPTRKMLDHIAHEVGLKKRVVQVWFQNTRARERK | -0.951 ± 0.17
RLRTTITPEQLEILYQKYLLDSNPTRKMLDHIAHEVGLKKRVVQVWFQNTRARGRK | -0.305 ± 0.088
RLRTTITPEQLEILYQKYLLDSNPTRKMLDHIAHEVGLKKRVVQVWFQNTRARTRK | -0.361 ± 0.077
RLRTTITPEQLEILYQWYLLDSNPTRKMLDHIAHEVGLKKRVVQVWFQNTRARERK | -0.056 ± 0.095
RLRTTITPEQLEILYQRYLLDSNPTRKMLDHIAHEVGLKKRVVQVWFQNTRARERK | 0.099 ± 0.078
RLRTTITPEQLEILYQKYLLDSNPTRKMLDHIAHEVGLKKRVVQVWFDNTRARERK | 0.505 ± 0.2
